Test [1] addresses erep1_human ENTREP1 (UniProt Q15884).
For test [2], the target named is cxcr4_human CXCR4 (UniProt P61073).
Chain of cxcr4_human CXCR4 (P61073 whole entry): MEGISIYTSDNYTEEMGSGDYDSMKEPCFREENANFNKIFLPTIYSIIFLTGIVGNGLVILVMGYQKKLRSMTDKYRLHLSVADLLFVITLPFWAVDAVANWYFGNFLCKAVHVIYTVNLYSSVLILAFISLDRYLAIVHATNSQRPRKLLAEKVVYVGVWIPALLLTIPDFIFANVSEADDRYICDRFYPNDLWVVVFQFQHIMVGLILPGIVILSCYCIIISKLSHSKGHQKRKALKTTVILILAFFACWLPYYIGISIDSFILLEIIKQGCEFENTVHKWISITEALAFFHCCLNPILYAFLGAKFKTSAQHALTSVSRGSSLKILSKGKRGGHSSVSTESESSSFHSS

Chain of E3 ubiquitin-protein ligase Itchy homolog (Homo sapiens), Q96J02-2 C830A (Q96J02 other isoform, or with tags, fused parts or gaps C830A): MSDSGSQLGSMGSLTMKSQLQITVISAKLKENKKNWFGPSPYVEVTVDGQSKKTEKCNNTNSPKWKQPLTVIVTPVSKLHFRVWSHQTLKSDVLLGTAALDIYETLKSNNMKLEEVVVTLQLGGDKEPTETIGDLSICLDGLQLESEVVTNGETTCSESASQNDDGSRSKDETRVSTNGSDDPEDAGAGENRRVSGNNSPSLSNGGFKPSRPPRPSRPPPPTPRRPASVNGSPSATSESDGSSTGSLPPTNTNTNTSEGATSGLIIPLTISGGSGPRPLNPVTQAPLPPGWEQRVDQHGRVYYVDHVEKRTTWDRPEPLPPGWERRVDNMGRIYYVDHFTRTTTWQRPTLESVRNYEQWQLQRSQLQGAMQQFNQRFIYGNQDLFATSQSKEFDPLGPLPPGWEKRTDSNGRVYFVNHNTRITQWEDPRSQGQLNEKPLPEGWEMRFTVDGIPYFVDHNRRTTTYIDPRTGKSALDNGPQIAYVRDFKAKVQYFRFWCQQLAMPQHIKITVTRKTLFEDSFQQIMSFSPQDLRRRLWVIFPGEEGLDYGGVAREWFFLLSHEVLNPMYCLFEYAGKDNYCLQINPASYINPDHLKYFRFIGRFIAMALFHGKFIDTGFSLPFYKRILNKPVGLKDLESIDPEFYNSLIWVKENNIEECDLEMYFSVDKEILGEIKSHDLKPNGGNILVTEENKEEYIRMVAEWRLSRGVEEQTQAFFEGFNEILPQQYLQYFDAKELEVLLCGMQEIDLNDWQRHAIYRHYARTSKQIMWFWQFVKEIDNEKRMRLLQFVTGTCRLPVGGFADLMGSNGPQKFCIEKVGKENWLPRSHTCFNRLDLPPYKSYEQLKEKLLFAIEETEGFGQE
Chain of erep1_human ENTREP1 (Q15884 whole entry): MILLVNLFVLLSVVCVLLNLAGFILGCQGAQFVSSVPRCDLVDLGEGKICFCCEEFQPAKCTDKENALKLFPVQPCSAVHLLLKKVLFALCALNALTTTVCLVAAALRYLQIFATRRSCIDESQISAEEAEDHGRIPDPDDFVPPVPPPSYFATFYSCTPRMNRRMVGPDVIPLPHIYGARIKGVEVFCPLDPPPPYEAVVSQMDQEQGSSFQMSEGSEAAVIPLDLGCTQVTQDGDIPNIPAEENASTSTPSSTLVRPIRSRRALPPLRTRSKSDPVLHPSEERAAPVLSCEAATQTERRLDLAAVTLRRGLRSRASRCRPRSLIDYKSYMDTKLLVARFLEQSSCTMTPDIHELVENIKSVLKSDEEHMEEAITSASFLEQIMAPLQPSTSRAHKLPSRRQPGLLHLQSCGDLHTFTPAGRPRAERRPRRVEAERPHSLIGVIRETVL

With “E3 ubiquitin-protein ligase Itchy homolog (Homo sapiens), Q96J02-2 C830A”, the “effect of a mutation on the interaction” value in test [1] and in test [2] was “with no effect” each time.

The record behind these values is IntAct's records for PubMed 34927784.
